Earlier results, collected in publication PMC4221657.
pKd: −log10 of the molar value.

How the values were obtained:
[1] = target: VPAC2 receptor (Homo sapiens) (UniProt P41587)
[2] = target: VPAC1 receptor (Homo sapiens) (UniProt P32241)
[3] = target: PAC1 receptor (Homo sapiens) (UniProt P41586)
Chain of UniProt P41586 (P41586 21-468): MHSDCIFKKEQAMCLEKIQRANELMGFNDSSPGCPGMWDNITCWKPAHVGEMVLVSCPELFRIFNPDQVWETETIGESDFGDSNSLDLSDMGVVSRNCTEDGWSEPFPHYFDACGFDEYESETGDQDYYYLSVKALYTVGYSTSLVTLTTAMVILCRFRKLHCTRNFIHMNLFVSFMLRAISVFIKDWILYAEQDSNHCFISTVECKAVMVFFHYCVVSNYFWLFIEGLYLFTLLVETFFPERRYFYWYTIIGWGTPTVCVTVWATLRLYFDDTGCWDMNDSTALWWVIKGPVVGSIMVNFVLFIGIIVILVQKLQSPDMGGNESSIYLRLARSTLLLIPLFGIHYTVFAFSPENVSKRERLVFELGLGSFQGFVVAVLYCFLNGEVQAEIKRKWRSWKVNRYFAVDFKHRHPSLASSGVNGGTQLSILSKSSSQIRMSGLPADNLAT

Chain of UniProt P32241 (P32241 31-457): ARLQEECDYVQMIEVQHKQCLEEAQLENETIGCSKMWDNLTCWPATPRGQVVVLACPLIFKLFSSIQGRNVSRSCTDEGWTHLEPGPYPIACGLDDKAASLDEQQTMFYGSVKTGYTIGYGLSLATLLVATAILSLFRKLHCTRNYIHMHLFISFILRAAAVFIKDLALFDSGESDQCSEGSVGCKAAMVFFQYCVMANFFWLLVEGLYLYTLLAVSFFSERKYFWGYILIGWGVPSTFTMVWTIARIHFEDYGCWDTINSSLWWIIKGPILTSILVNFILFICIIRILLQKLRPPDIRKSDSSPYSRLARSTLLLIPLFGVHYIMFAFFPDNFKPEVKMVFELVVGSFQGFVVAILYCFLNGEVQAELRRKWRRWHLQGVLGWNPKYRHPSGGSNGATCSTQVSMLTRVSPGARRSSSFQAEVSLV
Chain of UniProt P41587 (P41587 24-438): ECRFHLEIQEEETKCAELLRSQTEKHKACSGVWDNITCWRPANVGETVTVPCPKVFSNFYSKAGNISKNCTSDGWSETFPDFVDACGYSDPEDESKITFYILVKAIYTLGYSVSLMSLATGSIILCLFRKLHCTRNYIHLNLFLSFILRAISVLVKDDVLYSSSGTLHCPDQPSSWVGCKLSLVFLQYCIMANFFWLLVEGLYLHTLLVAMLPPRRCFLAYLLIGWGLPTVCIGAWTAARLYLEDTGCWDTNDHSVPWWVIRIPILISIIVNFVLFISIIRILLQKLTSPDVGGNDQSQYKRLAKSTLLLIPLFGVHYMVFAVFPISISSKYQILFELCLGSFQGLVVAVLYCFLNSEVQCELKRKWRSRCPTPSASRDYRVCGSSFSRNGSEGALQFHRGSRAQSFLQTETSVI

## PACAP38 (from UniProt P18509)
[1]
  pKd: 9.00
[2]
  pKd: 9.00
[3]
  pKd: 9.30
